{"source": "paper PMC7588459", "about": "(Scientific Reports, 2020)", "binders": {"B1": {"name": "monoclonal antibody m102.4 (wild type) (antibody, V domains shown)", "VH": "EVQVIQSGADVKKPGSSVKVSCKSSGGTFSKYAINWVRQAPGQGLEWMGGIIPILGIANYAQKFQGRVTITTDESTSTAYMELSSLRSEDTAVYYCARGWGREQLAPHPSQYYYYYYGMDVWGQGTTVTVSS", "VL": "EIVMTQSPGTLSLAPGERATLSCWASQSVRNNYLAWYQQKPGQAPRLVIYNGSTRATGIPDRFSGSGSGTDFTLTISRLDPEDFAVYYCQQYGNSRRVTFGGGTKVEIK", "notes": "also called wild-type Nipah antibody; anti-Nipah mAb"}}, "key": {"[1]": {"target": "T1, Nipah virus attachment (receptor-binding) glycoprotein (GP), wild type (Nipah virus; strain of the assayed …, UniProt Q9IH62)", "T1 construct": "source: HEK 293-F FreeStyle, transiently transfected, purified from supernatant (Ni-NTA)", "assay": "BLI", "conditions": "both partners purified"}, "[2]": {"target": "T1, Nipah virus attachment …", "assay": "ELISA", "conditions": "both partners purified"}}, "data": [{"binder": "B1", "values": [{"measurement": "Kd", "setting": "[1]", "result": "0.07 ± 0.01", "unit": "nM"}, {"measurement": "koff", "setting": "[1]", "result": "4.53e-05", "unit": "s⁻¹"}, {"measurement": "kon", "setting": "[1]", "result": 646000, "unit": "M⁻¹ s⁻¹"}, {"measurement": "Kd", "setting": "[2]", "result": 0.12, "unit": "nM"}]}]}
